Measurements from patent US20200256849A1.

Key:
MART1 comPACT [1] = molecular target: MART1 comPACT (UniProt P61769); assay: dual staining with tetramer, trimer+DNA, dextramer and dextramer+DNA, FACS
MART1 comPACT [2] = molecular target: MART1 comPACT (UniProt P61769); assay: replicate of PE/APC comPACT tetramer dual staining, FACS
MART1 comPACT [3] = molecular target: MART1 comPACT (UniProt P61769); assay: PE/APC comPACT tetramer dual staining, FACS

% of gene edited cells stained (MART1 comPACT [1]): > 98%
tetramer staining (% of T cells) (MART1 comPACT [2]): > 99%
tetramer staining (% of T cells) (MART1 comPACT [3]): > 99%
Substance: TCR against a MART1 antigen (F5)
